Here are results for three molecules from patent US20240124590A1 (ULTRAHUMAN EIGHT, published 2024).

Usually Kd stands for a measure of binding affinity in units of concentration. The term koff denotes the first-order rate constant of dissociation. In general, kon refers to a measure of how fast the partners come together. What is called IC50 is the concentration that gives 50% inhibition.

Residue numbers refer to the chain shown, from its start.

B1: IgG1-08 (antibody, V domains shown)
VH: EVQLVESGGGLVQPGGSLRLSCAASGFTFSSYLMSWVRQAPGKGLEWVATISGGGSEKYYVDSVKGRFTISRDNAKNSLYLQMNSLRAEDTAVYYCARQLYGFDYWGQGTLVTVSS
VL: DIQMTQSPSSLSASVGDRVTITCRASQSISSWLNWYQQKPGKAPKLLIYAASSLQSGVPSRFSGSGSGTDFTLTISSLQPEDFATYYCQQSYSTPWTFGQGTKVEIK
notes: Designer; human IgG1null + Ckappa; also called Antibody IgG1-08; MAB08
B2: IgG1-06D02 (antibody, V domains shown)
VH: B1 VH with K58T
VL: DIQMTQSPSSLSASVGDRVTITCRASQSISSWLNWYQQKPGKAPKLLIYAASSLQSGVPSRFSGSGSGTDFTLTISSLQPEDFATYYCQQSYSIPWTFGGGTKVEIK
notes: Library-derived; human IgG1null + Ckappa; also called Clone 06D02
B3: IgG1-05 (antibody, V domains shown)
VH: B1 VH with L100V, G102Y
VL: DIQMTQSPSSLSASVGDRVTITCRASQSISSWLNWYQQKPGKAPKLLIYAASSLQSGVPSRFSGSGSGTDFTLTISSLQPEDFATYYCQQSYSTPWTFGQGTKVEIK
notes: Designer; human IgG1null + Ckappa; also called Antibody IgG1-05

T4 sequence (P35968 20-1356 limits assumed): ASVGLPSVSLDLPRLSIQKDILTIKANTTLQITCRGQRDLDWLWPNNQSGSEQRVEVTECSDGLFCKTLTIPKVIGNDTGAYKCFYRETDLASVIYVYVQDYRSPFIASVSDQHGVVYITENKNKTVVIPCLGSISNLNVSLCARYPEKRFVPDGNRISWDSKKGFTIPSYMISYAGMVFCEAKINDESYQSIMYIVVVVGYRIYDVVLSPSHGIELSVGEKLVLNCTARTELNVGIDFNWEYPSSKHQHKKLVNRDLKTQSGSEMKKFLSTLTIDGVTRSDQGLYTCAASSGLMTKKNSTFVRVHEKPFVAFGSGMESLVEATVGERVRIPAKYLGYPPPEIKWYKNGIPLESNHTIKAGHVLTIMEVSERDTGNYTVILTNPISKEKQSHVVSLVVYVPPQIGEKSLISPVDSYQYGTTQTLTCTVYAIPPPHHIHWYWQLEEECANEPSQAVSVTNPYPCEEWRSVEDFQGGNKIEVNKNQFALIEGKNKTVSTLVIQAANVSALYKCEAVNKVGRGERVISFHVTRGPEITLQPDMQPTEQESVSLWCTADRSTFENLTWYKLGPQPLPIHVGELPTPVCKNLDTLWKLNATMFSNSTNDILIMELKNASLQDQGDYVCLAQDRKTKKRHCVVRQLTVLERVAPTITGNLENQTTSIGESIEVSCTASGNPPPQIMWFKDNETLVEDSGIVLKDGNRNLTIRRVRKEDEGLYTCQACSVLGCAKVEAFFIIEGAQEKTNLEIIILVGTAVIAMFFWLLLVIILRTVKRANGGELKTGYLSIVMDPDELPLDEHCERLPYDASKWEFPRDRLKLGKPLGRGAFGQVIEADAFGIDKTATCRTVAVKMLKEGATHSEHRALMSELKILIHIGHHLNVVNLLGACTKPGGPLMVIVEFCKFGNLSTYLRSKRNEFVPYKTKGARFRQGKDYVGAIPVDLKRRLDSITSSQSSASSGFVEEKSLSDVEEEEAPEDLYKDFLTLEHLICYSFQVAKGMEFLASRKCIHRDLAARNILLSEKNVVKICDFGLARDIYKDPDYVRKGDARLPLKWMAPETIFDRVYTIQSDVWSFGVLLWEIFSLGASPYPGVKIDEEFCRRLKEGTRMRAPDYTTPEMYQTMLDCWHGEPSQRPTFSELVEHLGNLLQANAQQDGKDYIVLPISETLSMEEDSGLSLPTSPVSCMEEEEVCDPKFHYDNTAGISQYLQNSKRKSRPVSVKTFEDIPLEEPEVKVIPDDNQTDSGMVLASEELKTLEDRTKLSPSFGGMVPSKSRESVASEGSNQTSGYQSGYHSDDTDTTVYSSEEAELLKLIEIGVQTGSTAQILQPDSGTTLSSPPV
T9 sequence (Q15116 25-170 limits assumed): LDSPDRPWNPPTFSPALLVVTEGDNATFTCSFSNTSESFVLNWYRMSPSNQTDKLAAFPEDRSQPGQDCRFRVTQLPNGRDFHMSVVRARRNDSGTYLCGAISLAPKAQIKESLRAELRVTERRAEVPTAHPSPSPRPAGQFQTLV

The target in one test is T1, cynomolgus monkey PD1 His tag (monomeric) (cynomolgus monkey, UniProt Q15116 25-170 (human entry), limits assumed).
T1 construct: Soluble monomeric analyte; whole entry named; also called monomeric cyno PD1; not shown: His tag
T1 chain: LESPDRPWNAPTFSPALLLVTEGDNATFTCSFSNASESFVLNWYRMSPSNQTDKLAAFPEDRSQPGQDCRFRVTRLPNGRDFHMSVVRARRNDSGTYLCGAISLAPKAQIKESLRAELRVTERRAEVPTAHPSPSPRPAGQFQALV
The experiment in a line: SPR (Biacore), IgG captured, monomeric PD1-His analyte. As for the experimental part:
(§1) Affinity (KD) of purified IgGs was determined via SPR with antigen in-solution on a Biacore 3000 (GE). A mouse anti-human antibody (CH1 specific) was immobilized on a CM5 Sensor Chip to a level of 2000 RU in acetate buffer at pH 4.5 using amine coupling following the Wizard instructions for two channels. One channel was used for background signal correction. The standard running buffer HBS-EP pH 7.4 was used. Regeneration was performed with a single injection of 10 μl of 10 mM Glycine at pH 1.5 at 20 μl/minute. IgG samples were injected for 2 minutes at 50 nM at 30 μl/min followed by and off-rate of 60 seconds. […] The obtained sensorgrams were analysed using the Biacore 3000 evaluation (BIAevaluation) software. The KD was calculated by simultaneous fitting of the association and dissociation phases to a 1:1 Langmuir binding model.
(§2) Biacore analyses of binding affinity was performed for all IgGs to solution-phase, monomeric human and cyno PD1 proteins.
Consider B1, for which the Kd amounted to 3.4 nM, the koff is 0.00052 s⁻¹ and the kon was 150000 M⁻¹ s⁻¹.
For B2 the same measures were 4.9 nM, 0.00062 s⁻¹ and 130000 M⁻¹ s⁻¹.
The matching figures for B3: 2.8 nM, 0.00033 s⁻¹ and 120000 M⁻¹ s⁻¹.

In the next test the target is T2, human PD1 His tagged (monomeric) (human, UniProt Q15116 25-170, limits assumed).
T2 construct: Soluble monomeric analyte; whole entry named; also called monomeric human PD1; not shown: His tag
T2 sequence (Q15116 25-170 limits assumed): as the sequence (Q15116 25-170 limits assumed) above
The test is described as above. As for the experimental part:
as §1, §2
Consider B1, for which the Kd came out at 1.47 nM, the koff is 0.00028 s⁻¹ and the kon was 190000 M⁻¹ s⁻¹.
The matching figures for B2: 1.3 nM, 0.00025 s⁻¹ and 200000 M⁻¹ s⁻¹.
For B3 the same measures were 1.91 nM, 0.00029 s⁻¹ and 150000 M⁻¹ s⁻¹.

A further test deals with T3, human FZD5 (frizzled class receptor 5) on transfected HEK293 cells (human, UniProt Q13467 27-585).
T3 construct: also called FZDS; FZ5
The experiment in a line: cell microarray re-array, transfected HEK293. As for the experimental part:
(§3) Antibody binding was detected using AF647 fluorescent secondary anti-human IgG1 antibody. Primary hits (duplicate spots) were identified by analysing fluorescence (AF647 and ZsGreen1) on ImageQuant. Vectors encoding all hits were sequenced to confirm their correct identities. […] Slides were analysed as above. Flow cytometry confirmation screen: Expression vectors encoding ZsGreen1 only, or ZsGreen1 and PD1, FZDS, KDR or ULBP2, were transfected into human HEK293 cells. Each live transfectant was incubated with […] of each of the test antibodies and the Isotype control antibody. Cells were washed, and incubated with the same AF647 anti-human IgG Fc detection antibody as used in the cell microarray screens. Cells were again washed, and analysed by flow cytometry using an Accuri flow cytometer (BD). A 7AAD live/dead dye was used to exclude dead cells, and ZsGreen1-positive cells (i.e. transfected cells) were selected for analyses.
Consider B1, for which the binding result is on record as “no binding (tested: 5 µg/ml)”.
Same read-out and setting: under B2 stands “no binding (tested: 5 µg/ml)”.
Still for that read-out and setting: in the case of B3 it was “no binding (tested: 5 µg/ml)”.

A further test has as its target T4, human KDR (VEGFR2) on cells (human, UniProt P35968 20-1356).
T4 construct: Transfected HEK293 cells (arrays, flow cytometry) and human VEGFR2 reporter cells
The experiment in a line: cell microarray re-array, transfected HEK293. How it is done:
as §3
As to B1, the binding result is reported as “no binding (tested: 5 µg/ml)”.
Same read-out and setting: in the case of B2 it was “no binding (tested: 5 µg/ml)”.
For the molecule B3, the binding result was “no binding (tested: 5 µg/ml)”.

The target of another test is T5, recombinant ectodomain of rhesus VEGFR2 (rhesus).
T5 construct: whole entry named
T5 chain: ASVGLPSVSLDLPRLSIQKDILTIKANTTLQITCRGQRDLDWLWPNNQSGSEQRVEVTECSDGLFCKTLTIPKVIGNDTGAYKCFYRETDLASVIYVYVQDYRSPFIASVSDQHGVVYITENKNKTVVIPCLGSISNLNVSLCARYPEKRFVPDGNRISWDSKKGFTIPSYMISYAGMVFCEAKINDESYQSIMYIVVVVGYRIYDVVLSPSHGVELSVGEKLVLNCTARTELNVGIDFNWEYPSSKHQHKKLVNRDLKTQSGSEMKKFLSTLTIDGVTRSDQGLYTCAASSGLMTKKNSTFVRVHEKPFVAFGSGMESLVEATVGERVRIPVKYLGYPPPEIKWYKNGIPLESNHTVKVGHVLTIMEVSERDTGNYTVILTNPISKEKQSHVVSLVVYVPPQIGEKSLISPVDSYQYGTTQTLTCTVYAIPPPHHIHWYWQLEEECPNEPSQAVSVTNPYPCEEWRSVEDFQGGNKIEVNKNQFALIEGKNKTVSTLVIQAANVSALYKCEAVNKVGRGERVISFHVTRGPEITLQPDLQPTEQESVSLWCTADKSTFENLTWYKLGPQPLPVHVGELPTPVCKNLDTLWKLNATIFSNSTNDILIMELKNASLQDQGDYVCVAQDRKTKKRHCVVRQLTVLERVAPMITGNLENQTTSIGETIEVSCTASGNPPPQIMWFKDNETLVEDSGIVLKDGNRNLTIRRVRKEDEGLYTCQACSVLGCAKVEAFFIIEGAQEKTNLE
The experiment in a line: direct ELISA. Background: ELISA stands for enzyme-linked immunosorbent assay.
As to B1, the binding result was “no binding”.
On the same count and under the same terms, under B2 stands “no binding”.
In the case of B3, the binding result is “no binding”.

A further test has as its target T6, recombinant ectodomain of human FZD5 (human, UniProt Q13467 27-167, limits assumed).
T6 construct: whole entry named
T6 sequence: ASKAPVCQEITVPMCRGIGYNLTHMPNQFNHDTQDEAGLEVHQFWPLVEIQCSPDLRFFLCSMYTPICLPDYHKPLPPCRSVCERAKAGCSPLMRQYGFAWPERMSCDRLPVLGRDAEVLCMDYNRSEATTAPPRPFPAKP
The experiment in a line: direct ELISA.
For the molecule B1, the binding result was “no binding”.
In the case of B2, the binding result is “no binding”.
On the same count and under the same terms, in the case of B3 it was “no binding”.

The target of another test is T7, BSA protein (UniProt P02769 25-607).
T7 construct: Negative-control coat of the ELISA
T7 sequence (P02769 25-607 limits assumed): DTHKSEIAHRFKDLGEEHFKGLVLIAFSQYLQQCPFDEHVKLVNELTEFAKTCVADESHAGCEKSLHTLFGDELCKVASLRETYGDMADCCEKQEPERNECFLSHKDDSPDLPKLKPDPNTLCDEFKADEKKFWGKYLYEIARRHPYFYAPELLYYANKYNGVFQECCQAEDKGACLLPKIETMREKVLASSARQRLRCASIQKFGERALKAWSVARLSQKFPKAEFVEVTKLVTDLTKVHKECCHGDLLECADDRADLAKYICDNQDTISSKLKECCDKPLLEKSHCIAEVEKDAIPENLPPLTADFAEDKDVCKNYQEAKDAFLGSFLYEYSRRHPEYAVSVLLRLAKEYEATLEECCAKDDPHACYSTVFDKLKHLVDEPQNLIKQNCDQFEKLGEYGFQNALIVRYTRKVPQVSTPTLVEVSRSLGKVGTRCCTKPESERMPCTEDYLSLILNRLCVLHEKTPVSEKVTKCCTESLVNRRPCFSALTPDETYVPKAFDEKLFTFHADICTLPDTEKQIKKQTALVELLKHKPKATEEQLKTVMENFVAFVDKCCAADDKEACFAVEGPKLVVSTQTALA
As to the kind of experiment: direct ELISA.
With B1, the binding result was “no binding”.
As to B2, the binding result is recorded as “no binding”.
Same read-out and setting: in the case of B3 it was “no binding”.

For another test, the target named is T8, recombinant ectodomain of human VEGFR2 (human, UniProt P35968 20-764).
T8 construct: whole entry named
As to the kind of experiment: direct ELISA.
In the case of B1, the binding result is “no binding”.
The same measure, in the same setting: under B2 stands “no binding”.
As to B3, the binding result is reported as “no binding”.

Another test concerns the target T9, biotinylated human PD1-His/AviTag (human, UniProt Q15116 25-170, limits assumed, biotinylated).
T9 construct: Alphascreen antigen; whole entry named; also called biotinylated monomeric human PD1; not shown: His/AviTag
As to the kind of experiment: Alphascreen competition vs IgG1-Mab005 (humanized). As for the experimental part: The AlphaScreen assay (Perkin Elmer) was performed in a 25 μl final volume in 384-well white microtiter plates (Greiner). The reaction buffer contained 1×PBS pH 7.3 (Oxoid, Cat. nr. BRO014G) and 0.05% (v/v) Tween® 20 (Sigma, Cat. nr. P9416). Purified IgG samples were titrated in three fold serial dilutions starting at 500 nM final concentration and incubated with biotinylated human PD1-His/AviTag at 0.6 nM final concentration for 20 minutes at room temperature. […] Followed by addition of the Streptavidin Donor beads at 20 μg/ml (final concentration) and incubation for 30 minutes at room temperature. The emission of light was measured in the EnVision multilabel plate reader (Perkin Elmer) and analysed using the EnVision manager software. Values were reported as Counts Per Second (CPS) and corrected for crosstalk.
On the technique in general: Alpha assays give light when donor and acceptor beads are brought close together.
As for B1, the IC50 was determined as 2.36 nM.
The molecule B2 gave an IC50 of 2.63 nM.
Still for that read-out and setting: under B3 stands 1.66 nM.
